In publication PMC9642902 (2022):

Assays:
Experiment in all cases: ITC
[1] = molecular target: MjATG8-III, recombinant protein for ITC (Mirabilis jalapa)
[2] = molecular target: MjATG8-I, recombinant protein for ITC (Mirabilis jalapa)
[3] = molecular target: PmPexRD54 AIM peptide (Phytophthora mirabilis)

Row | Binder | Kd [1] [µM] | Kd [2] [µM] | Kd [3] [µM]
1 | KPLDFDWEIV [PiPexRD54 AIM peptide] | 0.12 | 0.21 | 
2 | potato ATG8-2.2 (StATG8-2.2), protein for ITC (natural protein) MAKSSFKLEHPLERRQAEAARIREKYPDRIPVIVEKAERSDIPDIDKKKYLVPADLTVGQFVYVVRKRIKLSAEKAIFIFVKNILPPTAAMMSAIYEEHKDEDGFLYMTYSGENTFG |  |  | 4200
